Data as given in the domain aggregation screens of Martell et al. (2025).

Assay: soluble fraction after stress (log2 fold change); higher = more stays soluble; pooled small domains, quantitative proteomics
Conditions: stress: 75 degC
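Further: 20 min heating vs room temperature control held 20 min.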

Row | Sequence | soluble fraction (log2)
1 | HMARGRETILLVEDEPAVRGLVHATLRLHGYTVLEARHGIEALLTSTKFVGPIHLLLTDVVMPQMS | 0.0984
2 | HMARHIHFEVHVQQAGRWSIHAQFGAGQREKAIEEAKKIEKTPGFDSVKVVKETYDSDLGNHQDTTIYRGP | -1.18
3 | HMARKTIFHSLLGELEQRIGRLPAGTILPAEQALADEYGVSKPTLRRALAELAEHGLITKENGIGSVVI | -0.577
4 | HMARLAGVDLPREKRIEIGLTYIYGIGLARSQEILKKAGINPDIRVKDLTDEQEQAIRNAMDGYIVEGDL | -1
5 | HMARLQEVVVRVPVEDGQTLAAIYREAEVIERADEGTGVLLTVRIPAPLLGRLRRLEGVHVQP | -1.07
6 | HMARRLELEDIPVDEVLFTASRNLVDAIEVMDPSRQAPMIQPWLKQALEWAVGALGFSKEDAVATLTSD | 0.157
7 | HMASAAHYEGVKTEGESDNDVITRVLTATGVTAEKDDIFVVKSLIADGKYSYTAYVYDGSVWAAMD | -0.236
8 | HMASALDVALNDFAEMRKKMRKPLTDRALALTLSELEKLAPGNDEKKIAILNQSIQRGWQGVFPLK | -0.336
9 | HMASDEVPGAGFKWREDVLLRVMEANGIDKSNRDDFVRHAVNFDDDDNNYLKKAEIEAAAAAWVESQSPA | -0.696
10 | HMASDLPTVTIMGKTFYTYVAKKGESFFGIANRFGWDPELLVKTNRELETPLDKGALIYYPVPKKPK | -1.32
11 | HMASIATLTVKALGGASDVVIRDKDGRIIWADRLPAGQSHRVFGHAPFNVAASHASRVQLSLLGKDVGRV | -1.37
12 | HMASISDRIRLLRAESHMTQEEFGRIFGISKPTVSFYEHGKSVPNDQIKTAIARYFGVSVDYLLGVTD | -2.14
13 | HMASKTGTITATSLNVRSGAATTYSILGTLSNGKTVTIYEESNGWYKINYNGGYGWVSKTYVSTG | -1.53
14 | HMASLASVAYETLRQALDNFQYVPGDRFSESEVGQQLGMSRTPVREALVRLQREGYISVLPKMGWVVNQ | -1.86
15 | HMASMHDGVAARLRAMVFERELAPGEFIDERRLAQQWQISRTPLREALKVLAAEGLVELVPRRGARVV | -1.12
16 | HMASPKEALWRSLAEEPDTWWDNRERKSQPGANPRSPDFKHKESGEALWIESRDTPTWVLETL | -0.196
17 | HMASQEESVATYIQDYYRNPKTGESMVSDDMVEEFYKTHPEWEDQADGSKEGMEAVLDNFNEFFEINYG | 0.333
18 | HMASSRPLAEGDFVRLRAGGATGRIESIKGQKATVQMGGLKVHAPLRDLLPVAEPIKQVSTASNT | -0.00256
19 | HMASVAKHIRRLRTERHMTQGDLAEKLFVTRQTVSAWETGKAQPDLETLERIAVVLGVEVTELIYGAP | -0.707
20 | HMASVVEQVQVSNDISLFRQQNSPYWQARFKVAGKWYTRTTKRTEQTQAAFRAAELRSEVQTKISQGIPLR | -2.56
21 | HMATESYYVLKADVPAKTLVTQEMVEEIKVSKGGAPVNSIKIDNIKEKGVYTSIPLLKGDVLSASNTG | 0.131
22 | HMATKVSSGATVRDVADLLGLSSAELIKKLMMMGEMATLTQTLTDESIKSIADEYDRKIEIVSAAE | -0.0786
23 | HMATNVLEISTRNKNILIQDSLNLVESFYSKSDNQYWYKLVFKTKDDLNKFLQEVSEDENTITYKTSSI | -0.359
24 | HMATPEINNLGRLRNAINQSNVNWHQIIKRLQNEYPNNWRQILIAIDRHDLLFRYDVENYIKYG | -2.31
25 | HMATPIAGTKYTLNNTPVYGTEKGPSIGKRSGIYYTWDATVRNGRIRMTNSPARVGVPWQVSFWVEVNKL | -2.9
26 | HMATPRLAIVPQSAAGRRLDAVLAELFPEYSRSRLSAWIKTGDVMVDGAAPRGRDPVRGGEEITLTAVQ | -0.183

Row | Sequence | soluble fraction (log2)
27 | HMATPTEHQLQAQARAVVEKAERLLDRASADDREDIINLIEKITDALAAEDFTAVKAPLAELSDILFYLE | -0.104
28 | HMATPTMEDYIEVIYSLVKTKGYARSADIAEKLEVYPSTVTKMLKKLDAEGYIVYEKYRGIALTDIGKKMG | -2.17
29 | HMATSNGEFVIPDGGLQFEELERSLLMQALKKSGGSQTGAARLLGLSRDTLRYRLEKFGIDAAAVRE | -0.39
30 | HMATVTVPNLKGMTPSGAESALAELNLKGAVGDSVESNDVENGKVASQDQAAGSDAKEGDTITYHLSS | 0.235
31 | HMATYETEVISGVNLRSAPNTSASVYRLLSKGEDIHVIQKVNDYWLKVQTKDGKIGYISASSKYTNYIA | -1.52
32 | HMAVEETFTITWLDRDGTVLEVDENVLKGTMPSFDGHIPPHDGLEFKGWDPEVVPVEGDATYTATYKA | 0.508
33 | HMAVENTGLSKRELEILQMMARGMSNQEIGDALFISLSTVKTHVASIFSKLQAVRRTQAVGIAKSLKII | -2.91
34 | HMAVFSKKQIFDTAFALFESKGLEAITARNLGKALSSSPAPIYAHYSSITELKNELISVAKDR | -3.06
35 | HMAVGDMISKLRTAANMSQEQFAELFGVTRQSVQKWENSFSVPELEKLIKISKYFDVSLDALVLRSDARVT | -2.5
36 | HMAVLFFVKRGERILGPTRLADLFQHAASGRLRANDLVGESPKGPWLPARQLDELEDAWASSRDATEAAAA | -0.817
37 | HMAVNQEFKNTINRIKYEYSLNQSQIADRLGVKKTYLSDMINGRVPYNETMNKKVNDVFPLPP | -0.169
38 | HMAVPTHVEFPVVGLQRSGITSLEQAIATVPGVSKAVVNVSDNRIFVDYDPTRSKVSDLLEVVRGAGFTP | -0.043
39 | HMAVQAESDIIKRAALLRNLGNTSMQLKNIDQAIDFYKQGIKLHPEDAELKYNLSQALRQKSQSNN | 0.055
40 | HMAVQEDAGLAREDLPPEVQGLLQEREAARAAKDWGKSDALRRQLQDLGYAIKDTAQGMEIKRT | 0.817
41 | HMAVRNTKQKQLVLSLLKNSGRPMTAGEIYRLAVQQYPNIAKSTVYRNLENLVSRGEVSQGMHQNGESFYS | -0.697
42 | HMAVSPEEQKKRIIELFRNRNEVSFKEIFDLPTKGHFVITLLAVLDLARQQIVIMEQLENEGIIKFTKGA | 0.134
43 | HMAVSSHAVKQRIRSLIQAEDPAAPLSDEALRLALSALGVDVSRRVIAKYRAELNIPSSSQRKK | -0.823
44 | HMAVSVPDVMGLTYEEAYNKITAEGLLVNRLESYTGLVEKGRVISQLPVGGEPAAKGSTVNVNVSL | 0.466
45 | HMAVTFPYTAYATDAVRLRERPSSSADVLAVIRKGDAVLVTGTDGNYAIVDYEGKRGYVVSSFIAT | -0.522
46 | HMAVWRIKVNYIPGYGVNIWSSYKNGHFTGKRAMHGETYEVLETKKDQDGNTWYKLDDHQWIEGRYAINAK | -2.45
47 | HMAYMETIERVEALAPGTKFNLKALFGTDWTQSRGTKLTLGKTFYEMVESGYVKTAKVLGKDSSNIMQYER | 0.0793
48 | HMAYSEEERNLIRSRLKDVAAALFKEKGIRDTNIDEIYTPVGISKTFFYSFFPSKAVLAIAIMK | -0.248
49 | HMAYVDWYENKQPTHEEAFKKLLGRIHPGAIVLLHSTSKTNGEILDELLTKWEEMGYRFGTLDELTGN | -1.58
50 | HMDAATDAIKAEVRALLEMANAQGIDTESIMLEAHEQTRNATEQDYYEAAKSALEAAIAGSNRDR | 0.435
51 | HMDADGEPIKLDQIGISHLSFTVADVKSLGEELVAKGVKLAAPMEAFTSPEGRISSIFVYDPDGILLQFDD | 0.136
52 | HMDADRLSPREREMLQFIARGQSNKEIARALELAESTVKIHVQNMLRKLNLSSRVQAAVFAVENGLG | -1.59

Row | Sequence | soluble fraction (log2)
53 | HMDAGLAEIIRSFEDNLGGFPPAAREDLLGWREIFTDDLILLAIKKAALAGVRKWSYVNGILKVWKNEGVR | -2.23
54 | HMDAHYMEMKGKTGTAFTMLRPAGKIDIEGQIFDAVAEAGFIEKGEAIRVVKYENAQLIVRK | -0.446
55 | HMDAIAYLGSRLKEIRLKSGLSLREIARQLDVSPSFISQIENGKSQPSVATLYAFAKLLNVPVDVLFQPS | -2.59
56 | HMDAKNNPQVMAQIRAILTAKGLSEDEVKTRLKTKNIDVDKMTDQEIIAQRPAIEAIINEMEQEKKQKMG | 0.0493
57 | HMDALPLIQLEKEIKDFISQGQKINAIKHYRNVMDRDFGTTISLKLAKYTVDALAQNIKVDLTKGYDQ | -1.01
58 | HMDALTLSIDAQGALYWNGQPVSRELAAQRFVEAAAQRPQPELHLRADQNVAYRHVAMTLADASRAGLTR | -0.248
59 | HMDANAYTYKVSEDTDTRTGEKIFLVKVAEKLSRKEYIVVNNYMKSLGSYYSKFKHAFLFKENPTEKL | -0.55
60 | HMDANLGEIFKVYEQEIGALTPFVREEMLDAIDHYPRDWILDAIRESAKSNARNWKYTLAILKRWKAEG | -0.284
61 | HMDAPIIRLLNSLVQRAVTTTASDIHIEPFEGETKVRMRIDGVIIDYVTLQRALHQPLIARIKIMSNLD | -0.15
62 | HMDAPKTGSLVVSKAVNYGSWSGFTFRLHGTSDKGNSVDVTATTGSDGKAYFKDIEIGTYTLEEVN | -0.406
63 | HMDAQEAAWARKMMETLPEKQKLSVALRIEEGLSFKEIGEIIGSSEGAARVNYFHGIRRLRELL | -0.789
64 | HMDAQNLQDQLFGFLKANPTQAYPAQTLADGLRLDDANAFTKVVQALAALERGGKVKVNEEGAFQYDAEK | 0.43
65 | HMDARSTHIAAIHVLKSKLQLQDSDYRALLLTLTGQTSSKDLSEHQRRAVRNHMQQLAERMGVVQ | -1.46
66 | HMDATFKVRVSVPDLNIRSGPGTNYAATGRFTGVGVFTITAVQSGQGSSSGWGKLKSGAGWIALDYAKR | -3.78
67 | HMDATIGGFKITDSAIYSGVKNNVNAGVRGTYIDKDGQIAFGDSNSYLKYYKDTDGKWKLEVSASSVKF | 0.454
68 | HMDAVDKDGNHMTFKKWSEQLQEAFHALELYDTTRAKQILSELVKFQVDSDITKSLKAIITNIDDMMA | -1.13
69 | HMDAYDEVTTLSQMVASGKNTTVAHLKHLKEYHQTDYLRQAVEWLLSNRKNVSFSVDEVMQEVHN | -0.0471
70 | HMDAYLPETVQKLLDVMDFDVPYSAAQLMEKLGLKSRASFRKLYLLPALEKNLIAMGVPDKPTSRNQTYIR | -0.787
71 | HMDAYSYFIRTYPLVDDPLIGDIRRIFAETHDGNPAGDADVRHILWRLLFERELYPTLDEATADWY | -2.39
72 | HMDDEAVQIMTLHISKGLEFDVVFALGLVSRTPESKEIEELEAEKQRQLYVAMTRAEKWLIVAA | 0.202
73 | HMDDEDLAFLQREFVSYQQAMDYYGLGYKPVVRLSHISGSVYKIGKKVLIRRNIFEEYLRNHV | 0.0397
74 | HMDDFGERLRKLRVAQDLTQQQLGEKLGVVPSTIGKYEKVKDSYPSIEVLIKLSDFFSVSTDYLLKG | -2.19
75 | HMDDFTEVLLQYLKDHDGYSSIHDKTDAETIYNTFGVSKKTFKKAVGDLYKKRLIVLEEEGIRLLG | -0.151
76 | HMDDISLEEIKYISSKLETKVNEIEELLVRYYDGETNEAEEKELKEFFAQADVPAHLLAEKRLFMQLASQ | 0.245
